The data set addresses T1, AITR6-His (Arabidopsis thaliana, UniProt Q9FGW7 1-302).
T1 sequence: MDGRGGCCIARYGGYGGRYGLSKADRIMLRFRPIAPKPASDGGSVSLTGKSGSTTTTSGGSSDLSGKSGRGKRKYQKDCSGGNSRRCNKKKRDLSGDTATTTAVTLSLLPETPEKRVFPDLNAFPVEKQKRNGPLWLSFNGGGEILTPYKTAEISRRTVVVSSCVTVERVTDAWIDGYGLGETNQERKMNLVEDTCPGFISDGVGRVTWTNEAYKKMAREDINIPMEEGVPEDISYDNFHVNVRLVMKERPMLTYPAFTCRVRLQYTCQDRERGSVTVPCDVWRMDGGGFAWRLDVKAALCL
Kind of data set: EMSA.

B1: F16 (dsDNA)
DNA 1: ACTCATAAAATATGTCTTTGATTTTTTGTAGTAAT
DNA 2: ATTACTACAAAAAATCAAAGACATATTTTATGAGT
Take B1: the binding result is reported as “no binding”.
